In patent US20140087995A1 (published 2014):
Numbered stars: 1 amine (or outer) side, 2 acyl side, 3 side chain; on linkers, the order of the positions; unused ones are H or OH. Bridge positions count the residues as written; N and C are the ends. Side chains are listed from the residue outwards. Ends that are not written are not given here. * marks the point of attachment. C20 diacid = O=C(O)CCCCCCCCCCCCCCCCCCC(=O)*; γGlu = O=C(O)[C@H](CCC(=O)[*:2])N[*:1]; AEEA = NCCOCCOCC(=O)O

T1: human amylin receptor (amylin 3(a) receptor: human calcitonin receptor coexpressed with RAMP-3) (human, UniProt P30988 25-474; O60896 24-148)
T1 sequence (looked up) 1: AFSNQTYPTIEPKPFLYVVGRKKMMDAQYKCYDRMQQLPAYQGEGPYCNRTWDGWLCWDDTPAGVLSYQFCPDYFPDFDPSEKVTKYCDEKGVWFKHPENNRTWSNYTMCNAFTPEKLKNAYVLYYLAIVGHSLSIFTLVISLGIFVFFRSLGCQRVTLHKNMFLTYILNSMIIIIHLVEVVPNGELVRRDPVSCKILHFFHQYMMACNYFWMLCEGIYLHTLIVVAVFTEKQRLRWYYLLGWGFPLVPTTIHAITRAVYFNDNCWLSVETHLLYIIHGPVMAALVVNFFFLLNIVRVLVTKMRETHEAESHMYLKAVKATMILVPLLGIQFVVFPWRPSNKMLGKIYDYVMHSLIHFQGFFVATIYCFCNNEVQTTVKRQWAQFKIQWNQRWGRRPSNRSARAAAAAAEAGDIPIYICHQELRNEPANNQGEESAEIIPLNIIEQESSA
T1 sequence (looked up) 2: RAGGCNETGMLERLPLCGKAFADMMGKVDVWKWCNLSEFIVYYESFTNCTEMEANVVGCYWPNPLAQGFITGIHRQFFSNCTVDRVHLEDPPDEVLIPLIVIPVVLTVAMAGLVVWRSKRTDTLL

T2: human calcitonin receptor (human, UniProt P30988 25-474)
T2 sequence (looked up): T1 sequence (looked up) 1

B1: N^ε1-[2-[2-[2-[[2-[2-[2-[[(4S)-4-carboxy-4-(19-carboxynonadecanoylamino)butanoyl]amino]ethoxy]ethoxy]acetyl]amino]ethoxy]ethoxy]acetyl]-[Arg17,Pro21,Pro27,His34 … (peptide)
peptide: K([AEEA-AEEA-γGlu-C20 diacid])CNTATCATQRLANFLRHSSPNFGAIPSSTNVGHNTY-NH2
modifications: disulfide 2-7; N-terminus assumed
SMILES: CC[C@H](C)[C@H](NC(=O)[C@H](C)NC(=O)CNC(=O)[C@H](Cc1ccccc1)NC(=O)[C@H](CC(N)=O)NC(=O)[C@@H]1CCCN1C(=O)[C@H](CO)NC(=O)[C@H](CO)NC(=O)[C@H](Cc1c[nH]cn1)NC(=O)[C@H](CCCNC(=N)N)NC(=O)[C@H](CC(C)C)NC(=O)[C@H](Cc1ccccc1)NC(=O)[C@H](CC(N)=O)NC(=O)[C@H](C)NC(=O)[C@H](CC(C)C)NC(=O)[C@H](CCCNC(=N)N)NC(=O)[C@H](CCC(N)=O)NC(=O)[C@@H](NC(=O)[C@H](C)NC(=O)[C@@H]1CSSC[C@H](NC(=O)[C@@H](N)CCCCNC(=O)COCCOCCNC(=O)COCCOCCNC(=O)CC[C@H](NC(=O)CCCCCCCCCCCCCCCCCCC(=O)O)C(=O)O)C(=O)N[C@@H](CC(N)=O)C(=O)N[C@@H]([C@@H](C)O)C(=O)N[C@@H](C)C(=O)N[C@@H]([C@@H](C)O)C(=O)N1)[C@@H](C)O)C(=O)N1CCC[C@H]1C(=O)N[C@@H](CO)C(=O)N[C@@H](CO)C(=O)N[C@H](C(=O)N[C@@H](CC(N)=O)C(=O)N[C@H](C(=O)NCC(=O)N[C@@H](Cc1c[nH]cn1)C(=O)N[C@@H](CC(N)=O)C(=O)N[C@H](C(=O)N[C@@H](Cc1ccc(O)cc1)C(N)=O)[C@@H](C)O)C(C)C)[C@@H](C)O
notes: also called compound 97
B2: N{-1}-[(4S)-4-carboxy-4-(19-carboxynonadecanoylamino)butanoyl]-Gly[Arg1,His14,Arg17,Pro21,Pro27]-h-amylin (peptide)
peptide: {C20 diacid-γGlu}-GRCNTATCATQRLAHFLRHSSPNFGAIPSSTNVGSNTY-NH2
modifications: disulfide 3-8
SMILES: CC[C@H](C)[C@H](NC(=O)[C@H](C)NC(=O)CNC(=O)[C@H](Cc1ccccc1)NC(=O)[C@H](CC(N)=O)NC(=O)[C@@H]1CCCN1C(=O)[C@H](CO)NC(=O)[C@H](CO)NC(=O)[C@H](Cc1c[nH]cn1)NC(=O)[C@H](CCCNC(=N)N)NC(=O)[C@H](CC(C)C)NC(=O)[C@H](Cc1ccccc1)NC(=O)[C@H](Cc1c[nH]cn1)NC(=O)[C@H](C)NC(=O)[C@H](CC(C)C)NC(=O)[C@H](CCCNC(=N)N)NC(=O)[C@H](CCC(N)=O)NC(=O)[C@@H](NC(=O)[C@H](C)NC(=O)[C@@H]1CSSC[C@H](NC(=O)[C@H](CCCNC(=N)N)NC(=O)CNC(=O)CC[C@H](NC(=O)CCCCCCCCCCCCCCCCCCC(=O)O)C(=O)O)C(=O)N[C@@H](CC(N)=O)C(=O)N[C@@H]([C@@H](C)O)C(=O)N[C@@H](C)C(=O)N[C@@H]([C@@H](C)O)C(=O)N1)[C@@H](C)O)C(=O)N1CCC[C@H]1C(=O)N[C@@H](CO)C(=O)N[C@@H](CO)C(=O)N[C@H](C(=O)N[C@@H](CC(N)=O)C(=O)N[C@H](C(=O)NCC(=O)N[C@@H](CO)C(=O)N[C@@H](CC(N)=O)C(=O)N[C@H](C(=O)N[C@@H](Cc1ccc(O)cc1)C(N)=O)[C@@H](C)O)C(C)C)[C@@H](C)O
notes: 38 residues: Gly added before position 1 of human amylin; also called compound 99
B3: N^ε1-[(4S)-4-carboxy-4-(19-carboxynonadecanoylamino)butanoyl]-[Arg17,Pro21,Pro27,His34]-h-amylin (peptide)
peptide: K([γGlu-C20 diacid])CNTATCATQRLANFLRHSSPNFGAIPSSTNVGHNTY-NH2
modifications: disulfide 2-7; N-terminus assumed
SMILES: CC[C@H](C)[C@H](NC(=O)[C@H](C)NC(=O)CNC(=O)[C@H](Cc1ccccc1)NC(=O)[C@H](CC(N)=O)NC(=O)[C@@H]1CCCN1C(=O)[C@H](CO)NC(=O)[C@H](CO)NC(=O)[C@H](Cc1c[nH]cn1)NC(=O)[C@H](CCCNC(=N)N)NC(=O)[C@H](CC(C)C)NC(=O)[C@H](Cc1ccccc1)NC(=O)[C@H](CC(N)=O)NC(=O)[C@H](C)NC(=O)[C@H](CC(C)C)NC(=O)[C@H](CCCNC(=N)N)NC(=O)[C@H](CCC(N)=O)NC(=O)[C@@H](NC(=O)[C@H](C)NC(=O)[C@@H]1CSSC[C@H](NC(=O)[C@@H](N)CCCCNC(=O)CC[C@H](NC(=O)CCCCCCCCCCCCCCCCCCC(=O)O)C(=O)O)C(=O)N[C@@H](CC(N)=O)C(=O)N[C@@H]([C@@H](C)O)C(=O)N[C@@H](C)C(=O)N[C@@H]([C@@H](C)O)C(=O)N1)[C@@H](C)O)C(=O)N1CCC[C@H]1C(=O)N[C@@H](CO)C(=O)N[C@@H](CO)C(=O)N[C@H](C(=O)N[C@@H](CC(N)=O)C(=O)N[C@H](C(=O)NCC(=O)N[C@@H](Cc1c[nH]cn1)C(=O)N[C@@H](CC(N)=O)C(=O)N[C@H](C(=O)N[C@@H](Cc1ccc(O)cc1)C(N)=O)[C@@H](C)O)C(C)C)[C@@H](C)O
notes: also called compound 77
B4: N^ε1-[(4S)-4-carboxy-4-[[(4S)-4-carboxy-4-(19-carboxynonadecanoylamino)butanoyl]amino]butanoyl]-[Arg17,Pro21,Pro27,His34]-h-amylin (peptide)
peptide: K([γGlu-γGlu-C20 diacid])CNTATCATQRLANFLRHSSPNFGAIPSSTNVGHNTY-NH2
modifications: disulfide 2-7; N-terminus assumed
SMILES: CC[C@H](C)[C@H](NC(=O)[C@H](C)NC(=O)CNC(=O)[C@H](Cc1ccccc1)NC(=O)[C@H](CC(N)=O)NC(=O)[C@@H]1CCCN1C(=O)[C@H](CO)NC(=O)[C@H](CO)NC(=O)[C@H](Cc1c[nH]cn1)NC(=O)[C@H](CCCNC(=N)N)NC(=O)[C@H](CC(C)C)NC(=O)[C@H](Cc1ccccc1)NC(=O)[C@H](CC(N)=O)NC(=O)[C@H](C)NC(=O)[C@H](CC(C)C)NC(=O)[C@H](CCCNC(=N)N)NC(=O)[C@H](CCC(N)=O)NC(=O)[C@@H](NC(=O)[C@H](C)NC(=O)[C@@H]1CSSC[C@H](NC(=O)[C@@H](N)CCCCNC(=O)CC[C@H](NC(=O)CC[C@H](NC(=O)CCCCCCCCCCCCCCCCCCC(=O)O)C(=O)O)C(=O)O)C(=O)N[C@@H](CC(N)=O)C(=O)N[C@@H]([C@@H](C)O)C(=O)N[C@@H](C)C(=O)N[C@@H]([C@@H](C)O)C(=O)N1)[C@@H](C)O)C(=O)N1CCC[C@H]1C(=O)N[C@@H](CO)C(=O)N[C@@H](CO)C(=O)N[C@H](C(=O)N[C@@H](CC(N)=O)C(=O)N[C@H](C(=O)NCC(=O)N[C@@H](Cc1c[nH]cn1)C(=O)N[C@@H](CC(N)=O)C(=O)N[C@H](C(=O)N[C@@H](Cc1ccc(O)cc1)C(N)=O)[C@@H](C)O)C(C)C)[C@@H](C)O
notes: also called compound 86
B5: N^ε1-[2-[2-[2-(19-carboxynonadecanoylamino)ethoxy]ethoxy]acetyl]-[Arg17,Pro21,Pro27,His34]-h-amylin (peptide)
peptide: K([AEEA-C20 diacid])CNTATCATQRLANFLRHSSPNFGAIPSSTNVGHNTY-NH2
modifications: disulfide 2-7; N-terminus assumed
SMILES: CC[C@H](C)[C@H](NC(=O)[C@H](C)NC(=O)CNC(=O)[C@H](Cc1ccccc1)NC(=O)[C@H](CC(N)=O)NC(=O)[C@@H]1CCCN1C(=O)[C@H](CO)NC(=O)[C@H](CO)NC(=O)[C@H](Cc1c[nH]cn1)NC(=O)[C@H](CCCNC(=N)N)NC(=O)[C@H](CC(C)C)NC(=O)[C@H](Cc1ccccc1)NC(=O)[C@H](CC(N)=O)NC(=O)[C@H](C)NC(=O)[C@H](CC(C)C)NC(=O)[C@H](CCCNC(=N)N)NC(=O)[C@H](CCC(N)=O)NC(=O)[C@@H](NC(=O)[C@H](C)NC(=O)[C@@H]1CSSC[C@H](NC(=O)[C@@H](N)CCCCNC(=O)COCCOCCNC(=O)CCCCCCCCCCCCCCCCCCC(=O)O)C(=O)N[C@@H](CC(N)=O)C(=O)N[C@@H]([C@@H](C)O)C(=O)N[C@@H](C)C(=O)N[C@@H]([C@@H](C)O)C(=O)N1)[C@@H](C)O)C(=O)N1CCC[C@H]1C(=O)N[C@@H](CO)C(=O)N[C@@H](CO)C(=O)N[C@H](C(=O)N[C@@H](CC(N)=O)C(=O)N[C@H](C(=O)NCC(=O)N[C@@H](Cc1c[nH]cn1)C(=O)N[C@@H](CC(N)=O)C(=O)N[C@H](C(=O)N[C@@H](Cc1ccc(O)cc1)C(N)=O)[C@@H](C)O)C(C)C)[C@@H](C)O
notes: also called compound 91

Each binder was assayed against T1, human amylin receptor (amylin 3(a) …) (assay: cell-based or functional assay).

Binder	hAmylin-R funct. EC50 (pM)
B1	356
B2	82
B3	145
B4	298
B5	40

These binders were tested against T2, human calcitonin receptor (assay: cell-based or functional assay).

Binder	Ratio hCT/hAmylin funct.	hCTR funct. EC50 (pM)
B1	33	11800
B2	10	818
B3	–	5400
B4	–	19200
B5	36.9	1480
